Where two headings read alike, the source gives them in different places.
T1: human BCMA on BCMA expressing cell lines (human, UniProt Q02223 1-184)
T1 sequence: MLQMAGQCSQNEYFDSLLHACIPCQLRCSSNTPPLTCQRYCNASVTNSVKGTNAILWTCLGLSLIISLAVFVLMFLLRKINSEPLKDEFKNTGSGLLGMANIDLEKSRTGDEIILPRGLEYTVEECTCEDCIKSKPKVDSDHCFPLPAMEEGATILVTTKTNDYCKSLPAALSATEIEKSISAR

T2: human BCMA protein (human, UniProt Q02223 1-54, limits assumed)
T2 sequence: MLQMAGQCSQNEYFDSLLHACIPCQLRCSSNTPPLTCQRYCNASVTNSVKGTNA


Legend:
[1] = target: T1, human BCMA on BCMA expressing cell lines; test: cell-based or functional assay
[2] = target: T2, human BCMA protein; test: affinity of purified protein to human BCMA protein, method not stated
[3] = target: T2, human BCMA protein; test: affinity to human BCMA protein, method not stated
[4] = target: T1, human BCMA on BCMA expressing cell lines; test: cell-based or functional assay; remark: listed apart in the source
[5] = target: T1, human BCMA on BCMA expressing cell lines; test: cell-based or functional assay; remark: listed apart in the source

TDCC Jeko1 EC50 [1] [nM] | TDCC MOLP-8 EC50 [1] [nM] | TDCC OPM-2 EC50 [1] [nM] | Kd [2] [nM] | Kd [3] [nM] | TDCC EC50 (EJM cells) [4] [nM] | TDCC Jeko1 EC50 [5] [nM] | TDCC MOLP-8 EC50 [5] [nM] | TDCC OPM-2 EC50 [5] [nM] | Binder
0.009 | 0.0022 | 0.0056 | 6 |  |  |  |  |  | 01F07-M34G TriTAC (other, not shown: large carriers; small tags and cut ends, trispecific; also called 01F01-M34G) VHH: EVQLVESGGGLVQPGRSLTLSCAASTNIFSTSPGGWYRQAPGKQRELVAAIHGFSTIYADSVKGRFTISRDNAKNSIYLQMNSLRPEDTALYYCNKVPWGDYHPGNVYWGQGTQVTVSS
0.015 | 0.0025 | 0.0069 |  | 6.27 | 0.00191 |  |  |  | BCMA targeting trispecific protein 01G08 (other, not shown: large carriers; small tags and cut ends, trispecific; also called 01G08 TriTAC) VHH: EVQLVESGGGLVQPGRSLTLSCAASTNIQSISPMGWYRQAPGKQRELVAAIHGFETLYADSVKGRFTISRDNAKNSIYLQMNSLRPEDTALYYCNKVPWGDYHPGNVYWGQGTQVTVSS
0.011 | 0.0033 | 0.012 |  | 6.53 | 0.00137 |  |  |  | BCMA targeting trispecific protein 02E05 (other, trispecific; also called 02E05 TriTAC; not shown: the C-terminal 6xHis tag follows those domains and is left out) VHH: EVQLVESGGGLVQPGRSLTLSCAASTNIFSRSPMGWYRQAPGKQRELVAAIHGISTLYADSVKGRFTISRDNAKNSIYLQMNSLRPEDTALYYCNKVPWGDYHPGNVYWGQGTQVTVSS
 |  |  |  | 7.5 | 0.00339 |  |  |  | BCMA targeting trispecific protein 02G06 (other, not shown: large carriers; small tags and cut ends, trispecific) VHH: EVQLVESGGGLVQPGRSLTLSCAASTNIFSGSPMGWYRQAPGKQRELVAAIHGNSTLYADSVKGRFTISRDNAKNSIYLQMNSLRPEDTALYYCNKVPWGDYHPGNVYWGQGTQVTVSS
 |  |  |  | 19.3 | 0.0446 |  |  |  | BCMA targeting trispecific protein 02G07 (other, not shown: large carriers; small tags and cut ends, trispecific) VHH: EVQLVESGGGLVQPGRSLTLSCAASTNIFSITPMGWYRQAPGKQRELVAAIHGESTLYADSVKGRFTISRDNAKNSIYLQMNSLRPEDTALYYCNKVPWGDYHPRDVYWGQGTQVTVSS
0.0053 | 0.0015 | 0.0044 |  | 4.18 | 0.000702 |  |  |  | BCMA targeting trispecific protein 01F07 (other, not shown: large carriers; small tags and cut ends, trispecific; also called 01F07 TriTAC) VHH: EVQLVESGGGLVQPGRSLTLSCAASTNIFSTSPMGWYRQAPGKQRELVAAIHGFSTIYADSVKGRFTISRDNAKNSIYLQMNSLRPEDTALYYCNKVPWGDYHPGNVYWGQGTQVTVSS
0.0091 | 0.0024 | 0.0074 |  | 6.31 | 0.00157 |  |  |  | BCMA targeting trispecific protein 02E06 (other, not shown: large carriers; small tags and cut ends, trispecific; also called 02E06 TriTAC) VHH: EVQLVESGGGLVQPGRSLTLSCAASTNIFSDSPMGWYRQAPGKQRELVAAIHGFSTFYADSVKGRFTISRDNAKNSIYLQMNSLRPEDTALYYCNKVPWGDYHPGNVYWGQGTQVTVSS
 |  |  |  | 35.6 | 0.0542 |  |  |  | BCMA targeting trispecific protein 02H01 (other, not shown: large carriers; small tags and cut ends, trispecific) VHH: EVQLVESGGGLVQPGRSLTLSCAASTNIFSKSPMGWYRQAPGKQRELVAAIHGSSTLYADSVKGRFTISRDNAKNSIYLQMNSLRPEDTALYYCNKVPWGDYHPRNVYWGQGTQVTVSS
 |  |  |  | 7.12 | 0.00433 |  |  |  | BCMA targeting trispecific protein 02G05 (other, not shown: large carriers; small tags and cut ends, trispecific) VHH: EVQLVESGGGLVQPGRSLTLSCAASTNITSISPMGWYRQAPGKQRELVAAIHGNSTLYADSVKGRFTISRDNAKNSIYLQMNSLRPEDTALYYCNKVPWGDYHPGNVYWGQGTQVTVSS
 |  |  |  | 31.1 | 0.0599 |  |  |  | BCMA targeting trispecific protein 02H04 (other, trispecific; not shown: the C-terminal 6xHis tag follows those domains and is left out) VHH: EVQLVESGGGLVQPGRSLTLSCAASTNIFSVSPMGWYRQAPGKQRELVAAIHGNSTLYADSVKGRFTISRDNAKNSIYLQMNSLRPEDTALYYCNKVPWGDYHPRNVYWGQGTQVTVSS
 |  |  |  | 27.5 | 0.0775 |  |  |  | BCMA targeting trispecific protein 02H11 (other, trispecific; not shown: the C-terminal 6xHis tag follows those domains and is left out) VHH: EVQLVESGGGLVQPGRSLTLSCAASTNITSISPMGWYRQAPGKQRELVAAIHGESTLYADSVKGRFTISRDNAKNSIYLQMNSLRPEDTALYYCNKVPWGDYHPRNVYWGQGTQVTVSS
0.0082 | 0.0035 | 0.01 |  | 6.73 | 0.00136 |  |  |  | BCMA targeting trispecific protein 02F02 (other, trispecific; also called 02F02 TriTAC; not shown: The C-terminal 6xHis tag is left out because it follows these missing domains) VHH: EVQLVESGGGLVQPGRSLTLSCAASTNIFSKSPMGWYRQAPGKQRELVAAIHGSSTLYADSVKGRFTISRDNAKNSIYLQMNSLRPEDTALYYCNKVPWGDYHPGNVYWGQGTQVTVSS
0.011 | 0.0028 | 0.0066 |  | 5.26 | 0.00108 |  |  |  | BCMA targeting trispecific protein 02G02 (other, trispecific; also called 02G02 TriTAC; not shown: anti-albumin domain, anti-CD3 domain and the linkers of the trispecific (TriTAC) format) VHH: EVQLVESGGGLVQPGRSLTLSCAASTNIFSITPMGWYRQAPGKQRELVAAIHGASTLYADSVKGRFTISRDNAKNSIYLQMNSLRPEDTALYYCNKVPWGDYHPGNVYWGQGTQVTVSS
 |  |  |  | 23.3 | 0.0319 |  |  |  | BCMA targeting trispecific protein 02H06 (other, trispecific; not shown: The C-terminal 6xHis tag is left out because it follows these missing domains) VHH: EVQLVESGGGLVQPGRSLTLSCAASTNIRSISPMGWYRQAPGKQRELVAAIHGSSTLYADSVKGRFTISRDNAKNSIYLQMNSLRPEDTALYYCNKVPWGDYHPRNVVWGQGTQVTVSS
 |  |  |  | 20.5 | 0.0238 |  |  |  | BCMA targeting trispecific protein 02G11 (other, not shown: large carriers; small tags and cut ends, trispecific) VHH: EVQLVESGGGLVQPGRSLTLSCAASTNIDSISPMGWYRQAPGKQRELVAAIHGSSTLYADSVKGRFTISRDNAKNSIYLQMNSLRPEDTALYYCNKVPWGDYHPRNVTWGQGTQVTVSS
0.011 | 0.0028 | 0.0097 |  | 6.77 | 0.00165 |  |  |  | BCMA targeting trispecific protein 02B06 (other, not shown: large carriers; small tags and cut ends, trispecific; also called 02B06 TriTAC) VHH: EVQLVESGGGLVQPGRSLTLSCAASTNIFSNSPMGWYRQAPGKQRELVAAIHGFSTLYADSVKGRFTISRDNAKNSIYLQMNSLRPEDTALYYCNKVPWGDYHPGNVYWGQGTQVTVSS
 |  |  |  | 6.83 | 0.00288 |  |  |  | BCMA targeting trispecific protein 02H09 (other, not shown: large carriers; small tags and cut ends, trispecific) VHH: EVQLVESGGGLVQPGRSLTLSCAASTNIFSRSPMGWYRQAPGKQRELVAAIHGSSTLYADSVKGRFTISRDNAKNSIYLQMNSLRPEDTALYYCNKVPWGDYHPGNVYWGQGTQVTVSS
0.01 | 0.0025 | 0.0073 |  | 6.75 | 0.00172 |  |  |  | BCMA targeting trispecific protein 02F04 (other, not shown: large carriers; small tags and cut ends, trispecific; also called 02F04 TriTAC) VHH: EVQLVESGGGLVQPGRSLTLSCAASTNIFSSSPMGWYRQAPGKQRELVAAIHGFSTLYADSVKGRFTISRDNAKNSIYLQMNSLRPEDTALYYCNKVPWGDYHPGNVYWGQGTQVTVSS
0.011 | 0.0056 | 0.0062 | 5 |  |  |  |  |  | 02G02-M34Y TriTAC (other, not shown: large carriers; small tags and cut ends, trispecific) VHH: EVQLVESGGGLVQPGRSLTLSCAASTNIFSITPYGWYRQAPGKQRELVAAIHGASTLYADSVKGRFTISRDNAKNSIYLQMNSLRPEDTALYYCNKVPWGDYHPGNVYWGQGTQVTVSS
 |  |  |  | 19.6 | 0.0389 |  |  |  | BCMA targeting trispecific protein 02H05 (other, trispecific; not shown: The C-terminal 6xHis tag is left out because it follows these missing domains) VHH: EVQLVESGGGLVQPGRSLTLSCAASTNQFSISPMGWYRQAPGKQRELVAAIHGKSTLYADSVKGRFTISRDNAKNSIYLQMNSLRPEDTALYYCNKVPWGDYHPRNVVWGQGTQVTVSS
 |  |  |  | 18 | 0.0286 |  |  |  | BCMA targeting trispecific protein 02G08 (other, not shown: large carriers; small tags and cut ends, trispecific) VHH: EVQLVESGGGLVQPGRSLTLSCAASTNIDSISPMGWYRQAPGKQRELVAAIHGESTLYADSVKGRFTISRDNAKNSIYLQMNSLRPEDTALYYCNKVPWGDYHPRNVTWGQGTQVTVSS
 |  |  |  | 34.4 | 0.0396 |  |  |  | BCMA targeting trispecific protein 02G09 (other, trispecific; not shown: The C-terminal 6xHis tag is left out because it follows these missing domains) VHH: EVQLVESGGGLVQPGRSLTLSCAASTNIFSDSPMGWYRQAPGKQRELVAAIHGFSTLYADSVKGRFTISRDNAKNSIYLQMNSLRPEDTALYYCNKVPWGDYHPRNVAWGQGTQVTVSS
0.012 | 0.004 | 0.0071 | 7 |  |  |  |  |  | 02G02-M34G TriTAC (other, not shown: large carriers; small tags and cut ends, trispecific) VHH: EVQLVESGGGLVQPGRSLTLSCAASTNIFSITPGGWYRQAPGKQRELVAAIHGASTLYADSVKGRFTISRDNAKNSIYLQMNSLRPEDTALYYCNKVPWGDYHPGNVYWGQGTQVTVSS
0.0056 | 0.0015 | 0.0036 | 3 |  |  |  |  |  | 01F07-M34Y TriTAC (other, trispecific; not shown: anti-albumin domain, anti-CD3 domain and the linkers of the TriTAC; the C-terminal His6 that follows them is left out) VHH: EVQLVESGGGLVQPGRSLTLSCAASTNIFSTSPYGWYRQAPGKQRELVAAIHGFSTIYADSVKGRFTISRDNAKNSIYLQMNSLRPEDTALYYCNKVPWGDYHPGNVYWGQGTQVTVSS
0.004 | 0.00094 | 0.0031 |  | 2.86 | 0.000341 |  |  |  | BCMA targeting trispecific protein 01H08 (other, trispecific; also called 01H08 TriTAC; not shown: the C-terminal His6 follows those missing domains and is left out) VHH: EVQLVESGGGLVQPGRSLTLSCAASTNIMSISPMGWYRQAPGKQRELVAAIHGFSTVYADSVKGRFTISRDNAKNSIYLQMNSLRPEDTALYYCNKVPWGDYHPGNVYWGQGTQVTVSS
 |  |  |  |  |  | 0.32 | 0.2 | 0.16 | BH2T TriTAC (protein, part only; not given: anti-albumin and anti-CD3 domains, part only) chain, part: EVQLVESGGGLVQPGRSLTLSCAASTNIFSISPMGWYRQAPGKQRELVAAIHGFSTLYADSVKGRFTISRDNAKNSIYLQMNSLRPEDTALYYCNKVPWGDYHPRNVYWGQGTQVTVSSHHHHHH
